Holding throughout (settings): amino acid activation with ATP; no EF-P stated
Substrate in the data set “purified protein”: NCCCC[C@H](N)C(=O)O
Nature of the data set: purified protein.

Substrate in data set [1]: NCCC[C@H](N)CC(=O)O
Put plainly: steady-state kinetics of amino acid activation. Format: biochemical, Escherichia coli.

Substrate in data set [2]: NCCC[C@@H](N)CC(=O)O
Nature of the data set: steady-state kinetics of amino acid activation. Format: biochemical, Escherichia coli.

A word on the Km: it is the concentration of substrate that gives half-maximal velocity. By kcat is commonly meant the maximal rate divided by the concentration of active sites. Broadly, the kcat/Km is the second-order rate constant that governs catalysis at low substrate concentration.

Positions count from the first letter of the chain named. Names and notes keep the numbering of the source.

B1: PoxA (Escherichia coli K-12) (protein)
chain: MSETASWQPSASIPNLLKRAAIMAEIRRFFADRGVLEVETPCMSQATVTDIHLVPFETRFVGPGHSQGMNLWLMTSPEYHMKRLLVAGCGPVFQLCRSFRNEEMGRYHNPEFTMLEWYRPHYDMYRLMNEVDDLLQQVLDCPAAESLSYQQAFLRYLEIDPLSADKTQLREVAAKLDLSNVADTEEDRDTLLQLLFTFGVEPNIGKEKPTFVYHFPASQASLAQISTEDHRVAERFEVYYKGIELANGFHELTDAREQQQRFEQDNRKRAARGLPQHPIDQNLIEALKVGMPDCSGVALGVDRLVMLALGAETLAEVIAFSVDRA
For the protein B1, in the data set “purified protein”, the Michaelis-Menten constant (Km) was found to be 8600 ± 1200 µM, the catalytic constant (kcat) was found to be 0.25 s⁻¹ and the kcat/Km was found to be 28.3 M⁻¹ s⁻¹. Besides, in data set [1], the Michaelis constant (Km) was 6950 ± 1894 µM, the catalytic constant (kcat) is 0.0467 s⁻¹ and the kcat/Km came out at 6.67 M⁻¹ s⁻¹. Besides, in data set [2], the Michaelis-Menten constant (Km) turned out to be 213 ± 31 µM, the kcat was 0.6 ± 0.055 s⁻¹ and the kcat/Km worked out at 2820 M⁻¹ s⁻¹.

B2: PoxA (Escherichia coli K-12; A298G) (protein)
chain: B1 chain with A298G
B2: in the data set “purified protein”, the Michaelis constant (Km) came out at 344 ± 44 µM, the kcat came out at 0.0633 s⁻¹ and the kcat/Km was found to be 185 M⁻¹ s⁻¹. Further, in data set [2], the Km amounted to 414 ± 63 µM, the kcat worked out at 0.283 ± 0.00833 s⁻¹ and the kcat/Km is 683 M⁻¹ s⁻¹.

The record behind these values is paper PMC3177975.
